Experimental data: the supplement of paper PMC10126150
± gives the standard deviation of the averaged measurements.

Test system: ATP
Assay: switch fluorescence ratio, 500 uM ATP over buffer (Cy3 cluster intensity, sum of 5 cycles each) (fold (ratio)); higher = stronger signal-on switching upon ATP binding; sequences stand for … in TCGTCGGCAGCGTCAGATGTGTATAAGAGACAGTTTTTTTTTTTTTTTTTTTTTTTTT…TC
Details: aptamer strand: ATP DNA aptamer (quencher-CACCTGGGGGAGTATTGCGGAGGAAGG + anchor), 100 nM annealed; ATP concentration: 500 uM
In short: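 Cy3-labelled switching-strand clusters on a modified Illumina MiSeq flow-cell were annealed to 100 nM quencher-labelled ATP aptamer, imaged in selection buffer, then imaged after 15 min with 500 uM ATP at 22 °C. Five buffer/ATP cycles ran, with NaOH stripping and re-annealing between them. The fluorescence ratio is summed target-cycle over summed buffer-cycle Cy3 intensity per cluster, averaged per switch-domain sequence. Clusters outside 100-1000 RFU were excluded.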
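Note: ATP exposure 15 min at 22 °C before imaging.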

| Sequence | switch fluorescence ratio |
| --- | --- |
| TTAATAGATT | 0.998 ± 0.021 |
| TTAATAGTC | 1.05 ± 0.0041 |
| TTAATCAGAT | 0.9533 ± 0.0093 |
| TTAATCCCAG | 1.02 ± 0.021 |
| TTAATCCTTG | 1.02 ± 0.034 |
| TTAATCGTGT | 0.995 ± 0.037 |
| TTAATCTGCC | 1.15 ± 0.025 |
| TTAATGAAGG | 1 ± 0.025 |
| TTAATGATTA | 0.994 ± 0.034 |
| TTAATGGGAC | 1.012 ± 0.0033 |
| TTAATGTT | 1.02 ± 0.018 |
| TTAATGTTCA | 1 ± 0.031 |
| TTAATGTTGG | 0.962 ± 0.046 |
| TTAATTAAAA | 0.962 ± 0.043 |
| TTAATTAGTT | 1.01 ± 0.023 |
| TTAATTATGA | 0.991 ± 0.012 |
| TTAATTATGG | 1 ± 0.034 |
| TTAATTCTAC | 1.039 ± 0.0063 |
| TTAATTGAAG | 0.958 ± 0.04 |
| TTAATTGAGG | 0.993 ± 0.044 |
| TTAATTGGGT | 1 ± 0.028 |
| TTAATTTGTT | 0.988 ± 0.042 |
| TTAATTTTAG | 0.9764 ± 0.0094 |
| TTAATTTTGG | 1.02 ± 0.012 |
| TTAATTTTTC | 1.02 ± 0.03 |

| Sequence | switch fluorescence ratio |
| --- | --- |
| TTACAAGAAA | 1.03 ± 0.041 |
| TTACAAGGTT | 1.02 ± 0.013 |
| TTACAAGTAT | 1.03 ± 0.021 |
| TTACAAGTGT | 0.993 ± 0.016 |
| TTACAAGTTA | 1.05 ± 0.064 |
| TTACAATTTC | 1.03 ± 0.056 |
| TTACACATCA | 1.083 ± 0.0047 |
| TTACAGGGGA | 1.01 ± 0.044 |
| TTACAGGGTA | 0.981 ± 0.025 |
| TTACAGTTGG | 1.03 ± 0.023 |
| TTACATATGT | 1.02 ± 0.021 |
| TTACATGATG | 1.01 ± 0.013 |
| TTACATGCTA | 1 ± 0.032 |
| TTACATGTAA | 0.996 ± 0.023 |
| TTACATTT | 1.02 ± 0.017 |
| TTACATTTAT | 1.023 ± 0.0083 |
| TTACCATTGG | 1.04 ± 0.082 |
| TTACCCTTGG | 1.17 ± 0.05 |
| TTACCTGAAC | 2.02 ± 0.31 |
| TTACGAAGTT | 1 ± 0.019 |
| TTACGCATTT | 1.12 ± 0.08 |
| TTACGCCGAC | 1.14 ± 0.15 |
| TTACGCTCAT | 2.79 ± 0.61 |
| TTACGGGCGG | 1.03 ± 0.078 |
| TTACGGGGAC | 1.08 ± 0.089 |

| Sequence | switch fluorescence ratio |
| --- | --- |
| TTACGGGTGG | 1.01 ± 0.044 |
| TTACGGTCCA | 1.05 ± 0.017 |
| TTACGGTGGT | 1.03 ± 0.036 |
| TTACGGTTT | 1 ± 0.025 |
| TTACGTTGGG | 0.997 ± 0.035 |
| TTACTAAGGT | 1.063 ± 0.01 |
| TTACTACGGC | 1.09 ± 0.021 |
| TTACTAGGCG | 1.01 ± 0.053 |
| TTACTATATG | 1.03 ± 0.018 |
| TTACTATTGG | 0.978 ± 0.013 |
| TTACTCGCTG | 1.07 ± 0.027 |
| TTACTCTTCG | 1.062 ± 0.0074 |
| TTACTGGACG | 1.07 ± 0.058 |
| TTACTGGAG | 1.02 ± 0.06 |
| TTACTGGATA | 0.987 ± 0.046 |
| TTACTGGGTT | 1 ± 0.084 |
| TTACTGTAAT | 1.18 ± 0.037 |
| TTACTGTTAC | 1.32 ± 0.083 |
| TTACTTACTT | 1.28 ± 0.081 |
| TTACTTAGGT | 1.03 ± 0.068 |
| TTAGAAAAGA | 1 ± 0.033 |
| TTAGAACTCT | 1.01 ± 0.014 |
| TTAGAAGACT | 1.08 ± 0.08 |
| TTAGACATTT | 1.01 ± 0.026 |
| TTAGAGGCTG | 0.912 ± 0.15 |

| Sequence | switch fluorescence ratio |
| --- | --- |
| TTAGAGGTTA | 0.98609 ± 0.00054 |
| TTAGAGGTTT | 0.971 ± 0.038 |
| TTAGAGTCTG | 1.005 ± 0.01 |
| TTAGATACAT | 1 ± 0.019 |
| TTAGATAGGT | 1.02 ± 0.062 |
| TTAGATATAT | 0.996 ± 0.036 |
| TTAGATTGTG | 0.978 ± 0.03 |
| TTAGCATAAA | 1.04 ± 0.024 |
| TTAGCCAGCT | 0.96986 ± 0.00044 |
| TTAGGAGGGG | 1.03 ± 0.11 |
| TTAGGATGTA | 1.005 ± 0.0095 |
| TTAGGATGTG | 0.984 ± 0.022 |
| TTAGGCGGGC | 1.02 ± 0.027 |
| TTAGGCGTAT | 0.989 ± 0.041 |
| TTAGGCTGTG | 0.986 ± 0.03 |
| TTAGGGAACA | 1.16 ± 0.16 |
| TTAGGGATAC | 1.88 ± 0.88 |
| TTAGGGCAGG | 1.06 ± 0.058 |
| TTAGGGCGAC | 1 ± 0.044 |
| TTAGGGCTCG | 1.01 ± 0.057 |
| TTAGGGGCAG | 0.981 ± 0.034 |
| TTAGGGGGGT | 1.05 ± 0.15 |
| TTAGGGTATT | 1.02 ± 0.028 |
| TTAGGGTCT | 1.01 ± 0.022 |
| TTAGGGTGGG | 1.01 ± 0.053 |

| Sequence | switch fluorescence ratio |
| --- | --- |
| TTAGGTAGTG | 0.9667 ± 0.0047 |
| TTAGGTCGGT | 1.01 ± 0.0094 |
| TTAGGTTAGA | 0.993 ± 0.014 |
| TTAGGTTTAA | 1.02 ± 0.021 |
| TTAGGTTTAT | 0.986 ± 0.013 |
| TTAGGTTTCT | 1 ± 0.011 |
| TTAGGTTTGC | 1 ± 0.032 |
| TTAGTAATAT | 1.17 ± 0.12 |
| TTAGTACCAT | 1.01 ± 0.028 |
| TTAGTACTGA | 1.05 ± 0.035 |
| TTAGTAGGGT | 0.983 ± 0.04 |
| TTAGTAGGTC | 0.992 ± 0.047 |
| TTAGTAGTGT | 0.973 ± 0.0063 |
| TTAGTATGCT | 0.9864 ± 0.0082 |
| TTAGTCGTGC | 1.01 ± 0.026 |
| TTAGTCTGAT | 1 ± 0.038 |
| TTAGTCTGTT | 0.99 ± 0.022 |
| TTAGTGAAGG | 1.01 ± 0.023 |
| TTAGTGGAAT | 0.9552 ± 0.0073 |
| TTAGTGGGGA | 1.01 ± 0.039 |
| TTAGTGGTAC | 1.15 ± 0.044 |
| TTAGTGTAAT | 1.01 ± 0.025 |
| TTAGTGTATC | 0.982 ± 0.059 |
| TTAGTGTCTT | 0.976 ± 0.025 |
| TTAGTTGGAT | 1.04 ± 0.029 |

| Sequence | switch fluorescence ratio |
| --- | --- |
| TTAGTTGGGA | 0.9828 ± 0.0087 |
| TTAGTTTCGG | 1.01 ± 0.019 |
| TTAGTTTTAT | 1 ± 0.027 |
| TTAGTTTTTC | 1.01 ± 0.032 |
| TTATAAACCT | 1.99 ± 1.4 |
| TTATAAGGG | 0.9843 ± 0.0022 |
| TTATAAGTAG | 1.01 ± 0.02 |
| TTATAATGTG | 1.009 ± 0.01 |
| TTATAATTAG | 0.994 ± 0.046 |
| TTATAATTGA | 1.02 ± 0.031 |
| TTATAATTTT | 0.965 ± 0.044 |
| TTATACACAT | 1.06 ± 0.023 |
| TTATACAGGA | 1.019 ± 0.0057 |
| TTATACCTTA | 1.065 ± 0.0043 |
| TTATACGGCT | 1.11 ± 0.092 |
| TTATACGTAT | 1.04 ± 0.037 |
| TTATAGGGAC | 1 ± 0.015 |
| TTATAGGGGT | 1.09 ± 0.057 |
| TTATAGGTAT | 0.9803 ± 0.0054 |
| TTATAGTCAT | 0.965 ± 0.027 |
| TTATATACAG | 1.058 ± 0.0062 |
| TTATATATGC | 0.986 ± 0.028 |
| TTATATCTAC | 1.004 ± 0.0045 |
| TTATATGGGG | 1 ± 0.018 |
| TTATATGGGT | 0.999 ± 0.013 |

| Sequence | switch fluorescence ratio |
| --- | --- |
| TTATATTCGC | 1.02 ± 0.084 |
| TTATATTGGA | 0.971 ± 0.017 |
| TTATCAGTTG | 1.01 ± 0.057 |
| TTATCATCCG | 1.08 ± 0.038 |
| TTATCCGGTT | 1.01 ± 0.012 |
| TTATCGAATG | 0.965 ± 0.065 |
| TTATCGAGTT | 1.03 ± 0.015 |
| TTATCGATGA | 1 ± 0.03 |
| TTATCGCTGC | 1.06 ± 0.11 |
| TTATCGGACG | 0.969 ± 0.084 |
| TTATCGGGTT | 0.973 ± 0.036 |
| TTATCGTGC | 0.9864 ± 0.0071 |
| TTATCGTTTG | 1.02 ± 0.043 |
| TTATCTAGTT | 1 ± 0.054 |
| TTATCTGTTA | 1.014 ± 0.0018 |
| TTATGAGGGT | 0.982 ± 0.015 |
| TTATGATGGA | 0.991 ± 0.013 |
| TTATGATTTA | 0.9434 ± 0.0029 |
| TTATGCGATT | 1 ± 0.022 |
| TTATGGAAGG | 1.03 ± 0.02 |
| TTATGGCATC | 0.974 ± 0.029 |
| TTATGGCGCC | 0.9862 ± 0.0046 |
| TTATGGGAAA | 1.02 ± 0.023 |
| TTATGGTCCG | 0.976 ± 0.045 |
| TTATGGTGCT | 0.945 ± 0.051 |

| Sequence | switch fluorescence ratio |
| --- | --- |
| TTATGGTTTT | 1 ± 0.024 |
| TTATGTACGT | 1.09 ± 0.021 |
| TTATGTACTT | 1.05 ± 0.021 |
| TTATGTATGC | 0.95 ± 0.08 |
| TTATGTATTT | 0.995 ± 0.015 |
| TTATGTCAAA | 1.01 ± 0.025 |
| TTATGTCAGG | 1.04 ± 0.015 |
| TTATGTGAGA | 1.01 ± 0.044 |
| TTATGTGATA | 0.95571 ± 0.00088 |
| TTATGTGGTG | 0.974 ± 0.014 |
| TTATGTTCAG | 1.04 ± 0.034 |
| TTATGTTCGC | 0.975 ± 0.034 |
| TTATGTTGGG | 1.013 ± 0.0047 |
| TTATGTTTGT | 1.01 ± 0.033 |
| TTATGTTTTG | 0.999 ± 0.026 |
| TTATTAAACG | 1.015 ± 0.0029 |
| TTATTACCGA | 1.056 ± 0.0098 |
| TTATTACCTA | 1.06 ± 0.049 |
| TTATTAGATG | 0.997 ± 0.018 |
| TTATTAGATT | 1.01 ± 0.005 |
| TTATTAGCAA | 1.93 ± 1.4 |
| TTATTAGGGT | 1 ± 0.022 |
| TTATTATAGT | 1 ± 0.015 |
| TTATTATGGA | 1.02 ± 0.011 |
| TTATTATTT | 0.994 ± 0.11 |
